The results in this text go back to patent US20090130105A1 (Biogen, published 2009).

The target in assay [1] is T1, hIGF-1R-Fc mutant SD103 (D461A, V462T) (human, UniProt P08069 31-933).
T1 construct: not shown: human IgG1 Fc, C-terminal tag
Briefly: SPR, immobilized antibody. As for the experimental part:
(§1) Surface plasmon resonance (SPR) experiments were performed on a Biacore 3000 instrument set to 25° C. […] The antibody sensorchip surfaces were prepared by injecting each antibody (diluted 100 μg/mL in 10 mM Acetate, pH 4.0) over EDC/NHS-activated sensorchip surfaces according to the standard protocol of the manufacturer. […] Both hIGF-1R-Fc and mIGF-1R-Fc proteins oligomerize due to the incorporation of two separate homodimeric regions (IGF-1R and IgG1-Fc). […] After, completion of the receptor-Fc loading step, flow rates were elevated to 5 μl/min. […] Dissociation was measured for 7 minutes after the antibody injections were complete. Finally, the flow rate was elevated to 30 μL/min and the chip surfaces were regenerated by 2×10 μL injections of 0.1 M glycine, pH 2.

Assay [2] has as its target T2, human IGF-1R on H322M non-small cell lung cancer cells (human, UniProt P08069 31-1367).
T2 construct: Endogenous receptor of the tumor cell line; also called cell surface IGF-1R
Nature of the assay: flow cytometry on H322M cells, anti-human Fc PE secondary (FIG. 55B). As for the experimental part:
Cell lines were routinely cultured no greater than 20 passages. Flow cyotometric analysis of antibody binding to human cancer cells. Cells were lifted with cell dissociation buffer (Gibco catalog #13151-014), counted, washed and adjusted to 5×10⁶ cells/ml. Cells (2.5×10⁵; 50 uL) were added to each well of a 96-well round bottom plate (Costar #3799). Purified antibodies were tested at a starting concentration of 300 nM with serial half-log dilutions in FACS buffer. FACS buffer used throughout the assay was PBS (without Ca++/Mg++) containing 5% FBS. Samples were incubated on ice for 30 minutes, washed 3× with 200 uL FACS buffer and centrifuged at 1200 rpm for 3 minutes at 4° C. C2B8 (rituximab, IgG1) was used as a negative control. […] Samples were incubated for an additional 30 minutes on ice, shielded from light. Cells were washed as described above and resuspended in 100 μl FACS buffer containing propidium iodide (PI) for dead cell exclusion (BD Pharmingen, catalog# 51-66211E or 556463; use at 1:500 final in FACS buffer). Samples were run in triplicate using the FACSArray flow cytometer (Becton Dickinson) with 5000 live events collected per sample. Data analysis was performed using the GraphPad Prism version 5.0 software (GraphPad Software Inc., 11452 El Camino Real #215, San Diego, Calif. 92130). Results. […]
On the technique in general: A flow cytometer gives signals particle by particle.

Assay [3] deals with T3, sIGF-1R(1-903) (human, UniProt P08069 31-933).
T3 construct: also called soluble IGF-1R ectodomain
Nature of the assay: equilibrium solution-phase SPR, free sIGF-1R(1-903) read on C06 surface.

In assay [4] the target is T4, human IGF-1R(1-903)-Fc (human, UniProt P08069 31-933).
T4 construct: also called hIGF-1R-Fc; SDWT; not shown: human IgG1 Fc, C-terminal tag
Nature of the assay: IGF-1 blocking ELISA at 80 nM IGF-1 His on biotinylated hIGF-1R-Fc. As for the experimental part: (§2) The dilutions were added to the plates in duplicate at 100 μL/well and the plates were incubated at RT for 1 hour. The plates were then washed four times with 200 μL/well PBST. An HRP-conjugated anti-Histag antibody (Penta-His HRP Conjugate, QIAGEN, Cat. No. 1014992) was diluted 1:1000 in PBST and added to plates at 100 μL/well, and the plates were incubated at RT for one hour. The plates were then washed four times with 200 μL/well PBST. SureBlue Reserve TMB Microwell Peroxidase Substrate (KPL, Cat. No. 53-00-01) was added to plates at 100 μL/well followed by 1% phosphoric acid at 100 μL/well once the desired reaction was observed. The absorbance of each well was determined at 450 nm, and the results were normalized and plotted against the log of antibody concentration.
(§3) Ligand Blocking Properties.
(An ELISA detects its analyte on a solid surface through an enzyme-linked reagent.)

In assay [5] the target is T4, human IGF-1R(1-903)-Fc. Nature of the assay: IGF-2 blocking ELISA: antibody titrated in 640 nM IGF-2 His on biotinylated hIGF-1R-Fc on streptavidin plates, bound ligand detected with anti-His-HRP.
Assay [6] deals with T5, hIGF-1R-Fc mutant SD102 (E459A, S460A) (human, UniProt P08069 31-933).
T5 construct: not shown: human IgG1 Fc, C-terminal tag
Nature of the assay: SPR, Fab over captured mutant. As for the experimental part: as §1

For assay [7], the target named is T1, hIGF-1R-Fc mutant SD103 (D461A, V462T). Nature of the assay: SPR, Fab over captured mutant. As for the experimental part: as §1
A general note: Surface plasmon resonance follows binding to a sensor surface in real time, without labels.

Assay [8] addresses T6, hIGF-1R-Fc mutant SD104 (H464A) (human, UniProt P08069 31-933).
T6 construct: not shown: human IgG1 Fc, C-terminal tag
Briefly: SPR, Fab over captured mutant. As for the experimental part:
as §1

Assay [9] deals with T7, hIGF-1R-Fc mutant SD108 (H480E) (human, UniProt P08069 31-933).
T7 construct: not shown: human IgG1 Fc, C-terminal tag
Briefly: SPR, Fab over captured mutant. As for the experimental part: as §1

Assay [10] has as its target T8, hIGF-1R-Fc mutant SD109 (Y482A, R483W) (human, UniProt P08069 31-933).
T8 construct: not shown: human IgG1 Fc, C-terminal tag
Nature of the assay: SPR, Fab over captured mutant. As for the experimental part:
as §1

Assay [11] deals with T9, hIGF-1R-Fc mutant SD113 (E570A, I571T) (human, UniProt P08069 31-933).
T9 construct: not shown: human IgG1 Fc, C-terminal tag
Nature of the assay: SPR, Fab over captured mutant. As for the experimental part: as §1

The target in assay [12] is T4, human IGF-1R(1-903)-Fc. Briefly: IGF-1 blocking ELISA: antibody titrated in 320 nM IGF-1 His on biotinylated hIGF-1R-Fc on streptavidin plates, bound ligand detected with anti-His-HRP. As for the experimental part:
as §2, §3

T4 sequence (P08069 31-933): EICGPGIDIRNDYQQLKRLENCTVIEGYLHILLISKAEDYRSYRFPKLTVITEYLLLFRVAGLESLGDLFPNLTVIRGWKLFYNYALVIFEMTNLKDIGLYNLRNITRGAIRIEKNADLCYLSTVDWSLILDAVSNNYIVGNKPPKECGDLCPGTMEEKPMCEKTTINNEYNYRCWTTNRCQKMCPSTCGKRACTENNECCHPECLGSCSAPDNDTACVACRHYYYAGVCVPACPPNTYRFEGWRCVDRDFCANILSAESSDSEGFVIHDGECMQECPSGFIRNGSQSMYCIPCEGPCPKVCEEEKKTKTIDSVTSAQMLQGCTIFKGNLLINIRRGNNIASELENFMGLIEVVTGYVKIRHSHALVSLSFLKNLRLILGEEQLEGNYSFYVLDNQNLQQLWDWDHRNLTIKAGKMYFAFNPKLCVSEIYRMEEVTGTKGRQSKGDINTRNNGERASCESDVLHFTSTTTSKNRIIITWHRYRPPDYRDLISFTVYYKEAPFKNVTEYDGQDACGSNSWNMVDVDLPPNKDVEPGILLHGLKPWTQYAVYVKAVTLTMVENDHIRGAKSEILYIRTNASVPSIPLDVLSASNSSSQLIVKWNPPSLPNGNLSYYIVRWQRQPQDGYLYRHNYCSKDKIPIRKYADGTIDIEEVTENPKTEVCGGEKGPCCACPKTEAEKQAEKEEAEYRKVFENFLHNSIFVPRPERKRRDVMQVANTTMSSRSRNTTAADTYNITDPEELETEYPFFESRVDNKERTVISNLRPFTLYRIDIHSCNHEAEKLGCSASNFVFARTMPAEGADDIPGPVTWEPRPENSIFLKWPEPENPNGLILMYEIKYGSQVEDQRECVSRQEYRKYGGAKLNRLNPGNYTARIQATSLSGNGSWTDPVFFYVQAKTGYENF
T3 sequence (P08069 31-933): as above
T1 sequence (P08069 31-933 D491A/V492T): as the sequence (P08069 31-933) above, with D461A, V462T counted along it
T8 sequence (P08069 31-933 Y512A/R513W): as the sequence (P08069 31-933) above, with Y482A, R483W counted along it
T6 sequence (P08069 31-933 H494A): as the sequence (P08069 31-933) above, with H464A counted along it
T7 sequence (P08069 31-933 H510E): as the sequence (P08069 31-933) above, with H480E counted along it
T9 sequence (P08069 31-933 E600A/I601T): as the sequence (P08069 31-933) above, with E570A, I571T counted along it
T2 sequence (P08069 31-1367, stated change not applied): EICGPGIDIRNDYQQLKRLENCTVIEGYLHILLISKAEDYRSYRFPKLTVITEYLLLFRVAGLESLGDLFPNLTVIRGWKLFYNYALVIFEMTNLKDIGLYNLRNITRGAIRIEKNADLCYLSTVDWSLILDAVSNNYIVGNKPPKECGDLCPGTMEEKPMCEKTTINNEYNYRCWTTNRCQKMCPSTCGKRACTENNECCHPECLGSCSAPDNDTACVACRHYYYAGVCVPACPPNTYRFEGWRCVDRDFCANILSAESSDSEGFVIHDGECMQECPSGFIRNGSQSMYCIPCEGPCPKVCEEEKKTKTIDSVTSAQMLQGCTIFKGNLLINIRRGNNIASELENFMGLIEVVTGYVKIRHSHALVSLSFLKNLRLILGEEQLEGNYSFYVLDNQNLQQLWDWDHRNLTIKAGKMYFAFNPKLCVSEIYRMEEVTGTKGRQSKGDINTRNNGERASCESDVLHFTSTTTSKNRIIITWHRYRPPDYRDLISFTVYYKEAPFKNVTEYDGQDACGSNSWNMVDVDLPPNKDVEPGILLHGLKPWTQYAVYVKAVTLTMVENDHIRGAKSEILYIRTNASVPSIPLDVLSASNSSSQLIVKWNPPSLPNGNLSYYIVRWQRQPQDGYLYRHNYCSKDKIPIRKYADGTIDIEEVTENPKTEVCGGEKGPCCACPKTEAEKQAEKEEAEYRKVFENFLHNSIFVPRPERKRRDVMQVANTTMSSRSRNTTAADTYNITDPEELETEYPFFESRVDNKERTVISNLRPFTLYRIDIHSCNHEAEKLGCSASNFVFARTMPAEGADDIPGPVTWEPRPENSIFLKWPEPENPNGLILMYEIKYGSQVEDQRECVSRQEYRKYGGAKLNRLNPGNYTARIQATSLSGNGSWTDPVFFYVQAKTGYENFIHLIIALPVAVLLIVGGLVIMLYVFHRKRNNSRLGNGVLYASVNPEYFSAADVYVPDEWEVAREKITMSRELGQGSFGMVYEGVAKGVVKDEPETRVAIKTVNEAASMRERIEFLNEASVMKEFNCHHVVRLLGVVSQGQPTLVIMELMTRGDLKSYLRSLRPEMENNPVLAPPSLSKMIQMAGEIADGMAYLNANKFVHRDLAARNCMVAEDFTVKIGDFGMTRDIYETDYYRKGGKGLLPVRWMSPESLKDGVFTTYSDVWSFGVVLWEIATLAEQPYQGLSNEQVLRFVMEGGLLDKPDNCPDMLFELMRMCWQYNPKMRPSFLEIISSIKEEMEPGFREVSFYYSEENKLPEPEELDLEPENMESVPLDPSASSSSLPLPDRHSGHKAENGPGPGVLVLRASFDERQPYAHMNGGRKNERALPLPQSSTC
T5 sequence (P08069 31-933 E489A/S490A): as the sequence (P08069 31-933) above, with E459A, S460A counted along it

B1: M13-C06 antibody (antibody, V domains shown)
VH: EVQLLESGGGLVQPGGSLRLSCAASGFTFSIYRMQWVRQAPGKGLEWVSGISPSGGTTWYADSVKGRFTISRDNSKNTLYLQMNSLRAEDTAVYYCARWSGGSGYAFDIWGQGTMVTVSS
VL: DIQMTQSPLSLSASVGDRVTITCQASRDIRNYLNWYQQKPGKAPKLLIYDASSLQTGVPSRFGGSGSGTDFSFTIGSLQPEDIATYYCQQFDSLPHTFGQGTKLEIK
notes: Fully human full-length antibody (ATCC PTA-7444); also called M13.C06.G4.P.agly; M13-C06.G4P.agly
Take B1: in assay [1], the binding result is given as “no binding”. For the same molecule, in assay [2], a half-maximal response (EC50) required 0.25 nM. Besides, in assay [3], binding was characterised by a dissociation constant (Kd) of 0.1 nM and the “n (#C06 specific binding sites)” value was determined as 1. In addition, the “IC50 (read off the curve)” value in assay [4] is about 1 nM. Besides, in [5], the “IC50 (read off the curve)” value is about 1 nM.

B2: M13-C06 Fab (Fab, V domains shown)
VH: EVQLLESGGGLVQPGGSLRLSCAASGFTFSIYRMQWVRQAPGKGLEWVSGISPSGGTTWYADSVKGRFTISRDNSKNTLYLQMNSLRAEDTAVYYCARWSGGSGYAFDIWGQGTMVTVSS
VL: DIQMTQSPLSLSASVGDRVTITCQASRDIRNYLNWYQQKPGKAPKLLIYDASSLQTGVPSRFGGSGSGTDFSFTIGSLQPEDIATYYCQQFDSLPHTFGQGTKLEIK
notes: Fab made by enzymatic digestion of the IgG
On to B2, for which the binding result in assay [6], in assay [7], in assay [8], in assay [9], in [10] and in [11] was “no binding (tested: up to 10 nM Fab)” each time. This molecule yielded a dissociation constant (Kd) in [3] of 0.6 nM. Besides, the “n (#C06 specific binding sites)” value in assay [3] was found to be 2. Further, the “IC50 (read off the curve)” value in [12] was about 1 nM.

In general, EC50 refers to the concentration giving half of the maximal effect. In general, Kd refers to the free concentration of one partner at which half of the binding sites on the other are occupied at equilibrium, for simple one-to-one binding. Low values mean tighter binding, high ones weaker binding.
